Legend:
human SLC34A2 [1] = biological target: T1, human SLC34A2 (human, UniProt O95436 1-690); assay: cell-based or functional assay
T1 sequence (looked up): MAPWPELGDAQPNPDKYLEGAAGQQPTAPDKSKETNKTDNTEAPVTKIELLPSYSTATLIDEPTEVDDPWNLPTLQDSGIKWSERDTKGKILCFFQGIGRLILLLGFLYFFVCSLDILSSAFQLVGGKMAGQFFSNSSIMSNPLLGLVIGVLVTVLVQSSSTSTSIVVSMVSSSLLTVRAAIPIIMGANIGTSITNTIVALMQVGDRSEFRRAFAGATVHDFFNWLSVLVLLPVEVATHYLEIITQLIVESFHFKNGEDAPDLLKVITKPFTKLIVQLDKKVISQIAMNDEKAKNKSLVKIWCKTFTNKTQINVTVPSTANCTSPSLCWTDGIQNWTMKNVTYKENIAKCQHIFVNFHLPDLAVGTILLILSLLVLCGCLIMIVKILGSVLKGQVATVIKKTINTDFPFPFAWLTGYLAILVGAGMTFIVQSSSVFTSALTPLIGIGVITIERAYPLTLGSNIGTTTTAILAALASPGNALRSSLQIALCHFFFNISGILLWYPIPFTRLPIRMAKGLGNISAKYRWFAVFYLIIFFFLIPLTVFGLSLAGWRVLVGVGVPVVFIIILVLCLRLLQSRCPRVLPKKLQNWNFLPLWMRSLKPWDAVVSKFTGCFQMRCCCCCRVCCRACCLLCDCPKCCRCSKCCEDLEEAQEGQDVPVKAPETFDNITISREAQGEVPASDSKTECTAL

human SLC34A2 [2] = biological target: T1, human SLC34A2; assay: FACS, HEK293/human SLC34A2 cells
Experimental: (§1) Briefly, OVCAR3 cells or HEK293 cells expressing human SLC34A2 were incubated with chimeric antibodies (from 200 nM, 4 folds dilution, 8 points). After incubation at 4° C. for 60 minutes, the cells were washed with FACS buffer twice, then stained with fluorescent conjugated secondary antibody at 4° C. for 30 minutes. After that the cells were washed twice and analyzed by flow cytometry.

human SLC34A2 [3] = biological target: T1, human SLC34A2; assay: FACS, OVCAR3 cells
Experimental: In this example, cell based binding of chimeric antibodies (hIgG1) prepared from the murine antibodies on human SLC34A2 expressing cells were assessed using flow cytometry.
as §1

human SLC34A2 [4] = biological target: T1, human SLC34A2; assay: FACS, RMG-1 cells
Experimental: Based on the foregoing cell-based binding results, some of the chimeric antibodies were selected for further cell based binding on human SLC34A2 expressing cells using flow cytometry. RMG-1 cells were incubated with the selected chimeric antibodies (from 200 nM, 4 folds dilution, 8 points). After incubation at 4° C. for 60 minutes, the cells were washed with FACS buffer twice, then stained with fluorescent conjugated secondary antibody at 4° C. for 30 minutes. Afterwards the cells were washed twice and analyzed by flow cytometry.

human SLC34A2 [5] = biological target: T1, human SLC34A2; assay: cell-based or functional assay; remark: listed apart in the source
Cynomolgus SLC34A2 = biological target: T2, Cynomolgus SLC34A2 (Cynomolgus, UniProt A0A2K5UHY1 1-690); assay: FACS, cells expressing Cynomolgus SLC34A2
T2 construct: whole, on cells; also called Cyno SLC34A2
T2 sequence: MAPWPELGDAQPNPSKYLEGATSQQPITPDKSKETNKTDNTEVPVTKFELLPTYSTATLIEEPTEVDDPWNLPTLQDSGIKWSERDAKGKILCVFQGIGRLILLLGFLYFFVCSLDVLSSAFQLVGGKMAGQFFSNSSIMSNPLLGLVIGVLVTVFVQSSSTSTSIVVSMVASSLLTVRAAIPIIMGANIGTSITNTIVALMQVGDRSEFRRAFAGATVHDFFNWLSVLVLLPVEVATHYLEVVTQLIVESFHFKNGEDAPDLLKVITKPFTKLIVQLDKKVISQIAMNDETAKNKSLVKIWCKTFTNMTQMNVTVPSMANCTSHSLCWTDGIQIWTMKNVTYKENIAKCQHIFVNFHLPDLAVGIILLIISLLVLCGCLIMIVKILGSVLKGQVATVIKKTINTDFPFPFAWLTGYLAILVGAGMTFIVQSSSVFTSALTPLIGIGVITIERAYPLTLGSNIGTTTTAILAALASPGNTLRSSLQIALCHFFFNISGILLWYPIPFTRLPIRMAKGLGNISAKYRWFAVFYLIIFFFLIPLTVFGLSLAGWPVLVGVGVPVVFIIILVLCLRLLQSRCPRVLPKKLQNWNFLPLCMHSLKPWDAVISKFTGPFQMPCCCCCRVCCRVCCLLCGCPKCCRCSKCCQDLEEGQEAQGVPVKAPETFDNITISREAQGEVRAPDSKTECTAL

Rhesus SLC34A2 = biological target: T3, Rhesus SLC34A2 (Rhesus, UniProt F7HDA3 1-690); assay: FACS, HEK293/Rhesus SLC34A2 cells
T3 construct: whole, on cells
T3 sequence: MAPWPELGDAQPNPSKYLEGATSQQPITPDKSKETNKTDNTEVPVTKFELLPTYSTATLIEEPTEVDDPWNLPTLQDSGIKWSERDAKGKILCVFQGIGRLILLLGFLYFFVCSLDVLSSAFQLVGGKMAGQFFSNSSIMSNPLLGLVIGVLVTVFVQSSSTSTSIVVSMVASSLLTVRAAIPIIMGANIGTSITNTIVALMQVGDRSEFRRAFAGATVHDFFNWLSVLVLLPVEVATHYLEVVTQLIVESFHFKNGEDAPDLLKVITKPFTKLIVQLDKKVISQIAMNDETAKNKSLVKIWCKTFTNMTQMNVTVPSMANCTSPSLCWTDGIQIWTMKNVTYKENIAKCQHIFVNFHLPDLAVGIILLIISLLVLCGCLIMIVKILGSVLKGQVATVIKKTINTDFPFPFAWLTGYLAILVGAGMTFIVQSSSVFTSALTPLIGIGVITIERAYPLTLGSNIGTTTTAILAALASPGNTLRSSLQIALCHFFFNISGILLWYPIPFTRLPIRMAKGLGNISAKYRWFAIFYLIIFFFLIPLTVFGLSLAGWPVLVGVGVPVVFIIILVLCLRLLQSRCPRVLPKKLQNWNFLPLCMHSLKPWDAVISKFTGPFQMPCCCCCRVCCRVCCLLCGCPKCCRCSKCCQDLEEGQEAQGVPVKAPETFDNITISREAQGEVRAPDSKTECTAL
Experimental: as §1, with “the Rhesus SLC34A2 expressing HEK293 engineering” for “OVCAR3”, “(HEK293/Rhesus_SLC34A2)” for “or HEK293 cells expressing human SLC34A2”, “Abs” for “antibodies”

human SLC34A2 [6] = biological target: T1, human SLC34A2; assay: FACS, OVCAR3 cells; remark: listed apart in the source

| EC50 (human SLC34A2 [2]) [nM] | Top (MFI) (human SLC34A2 [2]) | EC50 (human SLC34A2 [3]) [nM] | Top (MFI) (human SLC34A2 [3]) | EC50 (human SLC34A2 [4]) [nM] | Top (MFI) (human SLC34A2 [4]) | ADCC reporter EC50 (human SLC34A2 [5]) [nM] | ADCC reporter Top (MFI) (human SLC34A2 [5]) | EC50 (Cynomolgus SLC34A2) [nM] | Top (MFI) (Cynomolgus SLC34A2) | EC50 (Rhesus SLC34A2) [nM] | Top (MFI) (Rhesus SLC34A2) | EC50 (human SLC34A2 [6]) [nM] | Top (MFI) (human SLC34A2 [6]) | Binder | cytotoxicity EC50 (human SLC34A2 [1]) [nM] | cytotoxicity Inhibition % (human SLC34A2 [1]) [%] |
| --- | --- | --- | --- | --- | --- | --- | --- | --- | --- | --- | --- | --- | --- | --- | --- | --- |
| 2.29 | 47500 | 4.66 | 27600 | 3.76 | 9500 | 2.1 | 238000 | 3.79 | 3730 | 2.72 | 14800 |  |  | xi16E5D10 hIgG1 (antibody, V domains shown, chimeric, hIgG1) VH: QVQLQQPGAELVKPGASVMMSCKASGYTFSNHNLHWLKKTPGQGLDWIGAIYPGNGDTSYNQKFKGRATLTVDKSSNTAYMQFSSLTSEDSAVFYCARGKYGNGAMDYWGQGTAVTVSS VL: DIVMTQSHKFMSTSVGDRVSITCRASQDVGTAVVWYQQKLGQSPKLLFDWASSRHTGVPDRFTGSGSGTDFTLTITDVQSEDLADYFCQQYSRQPLTFGAGTKLELK | 0.78 | 93.1 |
|  |  |  |  |  |  |  |  |  |  |  |  | 11.7 | 31700 | 63A11D5B4.p1.z12 hIgG1 (antibody, V domains shown, humanized hIgG1) VH: QVQLVQSGAEVVKPGASVKMSCKTSGYTFITYNMHWVRQAPGQGLEWIGAIYPGSGDTSYNQKFKGRVTLTADKSTSTAYMELSSLRSEDTAVYYCSISTIITTGAVDYWGQGTLVTVSS VL: DIVMTQSPSSLSTSVGDRVTITCKASQDVGTAVAWYQQKPGQSPKLLIYWTSTRHTGVPDRFTGSGSGTDFTLIIRSLQPEDVATYFCQQYSRIPLTFGSGTKVEIK |  |  |
|  |  |  |  |  |  |  |  |  |  |  |  | 16.4 | 32600 | 63A11D5B4.p1.z13 hIgG1 (antibody, V domains shown, humanized hIgG1) VH: QVQLQQSGAEVVKPGASVKMSCKTSGYTFITYNMHWVKQAPGQGREWIGAIYPGSGDTSYNQKFKGRATLTADKSTSTAYMELSSLRSEDTAVYYCSISTIITTGAVDYWGQGTSVTVSS VL: DIQMTQSPSSLSASVGDRVTITCKASQDVGTAVAWYQQKPGKVPKLLIYWTSTRHTGVPSRFSGSGSGTDFTLTISSLQPEDVATYYCQQYSRIPLTFGGGTKVEIK |  |  |
|  |  |  |  |  |  |  |  |  |  |  |  | 11.4 | 29500 | 63A11D5B4.p1.z16 hIgG1 (antibody, V domains shown, humanized hIgG1) VH: QVQLQQSGAEVVKPGASVKMSCKTSGYTFITYNMHWVKQAPGQGREWIGAIYPGSGDTSYNQKFKGRATLTADKSTSTAYMELSSLRSEDTAVYYCSISTIITTGAVDYWGQGTSVTVSS VL: DIVMTQSPSSLSTSVGDRVTITCKASQDVGTAVAWYQQKPGQSPKLLIYWTSTRHTGVPDRFTGSGSGTDFTLIIRSLQPEDVATYFCQQYSRIPLTFGSGTKVEIK |  |  |
|  |  |  |  |  |  |  |  |  |  |  |  | 16.1 | 32600 | 63A11D5B4.p1.z14 hIgG1 (antibody, V domains shown, humanized hIgG1) VH: QVQLQQSGAEVVKPGASVKMSCKTSGYTFITYNMHWVKQAPGQGREWIGAIYPGSGDTSYNQKFKGRATLTADKSTSTAYMELSSLRSEDTAVYYCSISTIITTGAVDYWGQGTSVTVSS VL: DIQMTQSPSSLSTSVGDRVTITCKASQDVGTAVAWYQQKPGKSPKLLIYWTSTRHTGVPSRFSGSGSGTDFTLIISSLQPEDVATYYCQQYSRIPLTFGGGTKVEIK |  |  |
| 1.88 | 107000 | 4.27 | 43000 | 4.73 | 9420 | 6.4 | 569000 | 2.81 | 3770 | 3.19 | 13400 |  |  | xi28G3C6B9 hIgG1 (antibody, V domains shown, chimeric, hIgG1) VH: QVQLQQPGAEVVKPGASVKMSCKASGYTFTSYIIHWVKQAPGQGLEWIGAIYPGNGDTSYSQRFKGKAKLTADKSSSTAYMQLNSLTSEDSVVYYCARGNNYGSPAWFGYWGQGTLVTVSA VL: DIVLTQSPVTLSVTPGDRVSLSCRASQSIGNFLYWYQQKSHESPRLLIKYASQSMSGIPSRFSGSGSGTDFTLSISRVETEDFGMYFCQQSNSWPVTFGAGTKLELK | 0.36 | 86.4 |
| 0.86 | 106000 | 2.75 | 42500 | 7.91 | 9800 | 2.2 | 228000 | 4.93 | 4090 | 2.9 | 14300 |  |  | xi18G1H4 hIgG1 (antibody, V domains shown, chimeric, hIgG1) VH: QVQLQQPGAELVKPGASVRMSCKASAYTFTTYNLHWVKQTPGQGLEWIGAISPGNGVTSYNQKFRGKATLTADKSSSTAYMQLSSLTSEDSAVYYCARGYGYSVGAMDYWGQGTSVTVSS VL: DIQMTQTTSSLSASLGDRVNISCSASQGIGNFLNWYQQKPDGTVKLLIYYTSSLHSGVPPRFSGSGSGTDYSLTISNLEPEDIATYYCQQYHKLPLTFGAGTKLELK | 0.36 | 82.7 |
| 1.37 | 109000 | 3.84 | 40500 | 4.33 | 8600 | 2.5 | 409000 | 68.5 | 1280 | 46 | 8840 |  |  | xi84F2D10 hIgG1 (antibody, V domains shown, chimeric, hIgG1) VH: QVQLQQPGAVLVKPGASVKMSCKASGYTFTSYNLHWVKQTPGQGLEWIGAIYPGNGDTSYIQKFKGKATLTADKSSSTAYMQLSSLTSEDSAVYYCARGKYGNYEGFAYWGQGTLVTVSA VL: DILLTQSPAILSVSPGERVSISCRASQSIGTSIYWYQQRRNGSPRLLIKFASESISGIPSRFSGSGSGTDFTLSINSVESEDIADYYCQQNNRWPFTFGSGTKLEIK | 0.61 | 102 |

Source: patent publication US20240301052A1 (LANOVA MEDICINES DEVELOPMENT, published 2024)
